Target: the molecule itself
Experiment: SEC; analytical gel filtration on Progel-TSK W-3047 (HPLC), 0.1 M sodium phosphate buffer pH 7.0, 1 mL/min; calibrated with standards of 6.5-160 kDa; apparent mass 135.33 ± 3.5 kDa against 48.5 kDa from the sequence

B1: Cupincin (hypothetical protein OsI_13867) (enzyme, UniProt B8AL97 35-470, looked up)
chain: SRRGEREEEDERRRHGGEGGRPYHFGEESFRHWTRTRHGRFSVLERFPDEQVVGAAVGGYRVAVLEAAPRAFLQPSHYDADEVFYVKEGEGVIVLLREGRKESFCVREGDAMVIPAGAIVYSANTHSSKWFRVVMLLNPVSTPGHFEEYFPVGGDRPESFFSAFSDDVLQAAFNTRREELEKVFERQREGGEITTAPEEQIRELSKSCSRGGGGGSGSEWEIKPSSLTGKSPYFSNNHGKLFELTGDECRHLKKLDLQIGLANITRGSMIAPNYNTRATKLAVVLQGSGYFEMACPHVSGGGSSERREREREHGRRREEEQGEEEHGERGEKARRYHKVRAQVREGSVIVIPASHPATIVASEGESLAVVCFFVGANHDEKVFLAGRNSPLRQLDDPAKKLVFGGSAAREADRVLAAQPEQILLRGPHGRGSVSDM
notes: Cupincin, hypothetical protein OsI_13867 of Oryza sativa L., 436 residues and 48492.94 Da in the database entry; The native protein runs in SDS-PAGE as three polypeptides (about 34.5, 26.9 and 15.9 kDa) that all match OsI_13867; also called purified protease from rice bran; source: purified from rice bran (variety IR-64): ammonium sulphate fractionation (40-80%), Sephadex G-150
B1 was tested, and the “stoichiometry N” value was 3.

Source: publication PMC4827828, “Cupincin: A Unique Protease Purified from Rice (Oryza sativa L.) Bran Is a New Member of the Cupin Superfamily” (PLoS ONE, 2016)
